Test results as given in patent US20200339648A1 (University of Washington, published 2020).

T1: human IL-2 receptor β subunit (hIL-2Rβ) (human, UniProt P14784 27-240, biotin on the C-terminal biotin acceptor peptide)
T1 construct: Biotinylated and immobilised on streptavidin; also called HsIL-2Rβ; human IL-2Rβ
T1 sequence: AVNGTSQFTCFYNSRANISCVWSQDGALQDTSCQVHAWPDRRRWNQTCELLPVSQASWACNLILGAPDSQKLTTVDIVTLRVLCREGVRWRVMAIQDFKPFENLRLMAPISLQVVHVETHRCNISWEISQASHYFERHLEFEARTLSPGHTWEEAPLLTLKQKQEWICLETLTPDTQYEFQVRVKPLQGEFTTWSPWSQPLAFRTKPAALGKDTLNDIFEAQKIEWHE

T2: mouse IL-2 receptor β subunit (mIL-2Rβ) (mouse, UniProt P16297 27-240, biotin on the C-terminal biotin acceptor peptide)
T2 construct: extracellular domain; Biotinylated form for SPR; also called MmIL-2Rβ; murine IL-2Rβ
T2 sequence: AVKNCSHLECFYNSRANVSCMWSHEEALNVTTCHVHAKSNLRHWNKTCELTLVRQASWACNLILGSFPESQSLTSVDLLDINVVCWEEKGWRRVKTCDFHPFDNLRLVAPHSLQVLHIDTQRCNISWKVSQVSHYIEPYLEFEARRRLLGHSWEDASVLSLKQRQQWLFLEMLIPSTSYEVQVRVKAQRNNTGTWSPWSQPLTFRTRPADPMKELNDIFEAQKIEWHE

T3: mouse IL-2 receptor βγc heterodimer (mIL-2Rβγc), soluble (mouse, UniProt P16297 27-240; P34902 23-263, biotin on the C-terminal biotin acceptor peptide)
T3 construct: extracellular domain; In SPR and BLI the gamma chain is on the chip or sensor and mIL-2Rβ is added in solution at saturating concentration (5 uM in SPR); also called MmIL-2Rβγc; mIL-2Rβνc
T3 sequence 1: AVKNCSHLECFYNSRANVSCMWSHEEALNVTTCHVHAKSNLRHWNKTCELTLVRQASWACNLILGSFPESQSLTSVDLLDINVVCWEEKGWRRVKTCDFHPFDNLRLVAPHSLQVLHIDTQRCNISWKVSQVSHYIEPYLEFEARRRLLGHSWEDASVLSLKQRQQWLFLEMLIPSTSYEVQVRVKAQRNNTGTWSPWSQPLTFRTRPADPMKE
T3 sequence 2: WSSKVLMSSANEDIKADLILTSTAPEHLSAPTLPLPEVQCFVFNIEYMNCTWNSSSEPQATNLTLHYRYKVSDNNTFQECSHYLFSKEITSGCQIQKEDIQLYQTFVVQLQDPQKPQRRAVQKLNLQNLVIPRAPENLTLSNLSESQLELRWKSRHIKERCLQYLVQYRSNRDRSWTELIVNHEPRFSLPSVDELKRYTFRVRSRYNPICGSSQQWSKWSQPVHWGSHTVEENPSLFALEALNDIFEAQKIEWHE

T4: mouse IL-2Rβγc on murine cells (CTLL-2 T cells, primary CD4+ T cells) (mouse, UniProt P16297 27-539; P34902 23-369)
T4 sequence (looked up) 1: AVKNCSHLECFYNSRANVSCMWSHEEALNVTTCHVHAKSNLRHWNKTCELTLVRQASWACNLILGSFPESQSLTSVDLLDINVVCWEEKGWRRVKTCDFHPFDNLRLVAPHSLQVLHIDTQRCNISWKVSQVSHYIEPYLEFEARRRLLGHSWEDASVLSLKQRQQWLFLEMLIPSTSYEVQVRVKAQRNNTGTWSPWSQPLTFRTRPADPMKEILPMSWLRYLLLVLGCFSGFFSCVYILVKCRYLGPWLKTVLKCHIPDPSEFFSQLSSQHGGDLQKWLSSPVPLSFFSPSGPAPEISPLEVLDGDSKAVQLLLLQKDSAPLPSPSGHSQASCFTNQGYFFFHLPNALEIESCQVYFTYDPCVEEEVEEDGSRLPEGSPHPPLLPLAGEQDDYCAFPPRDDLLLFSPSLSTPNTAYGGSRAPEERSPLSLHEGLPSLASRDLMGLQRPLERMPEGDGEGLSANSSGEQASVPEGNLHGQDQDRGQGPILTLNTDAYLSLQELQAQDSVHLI
T4 sequence (looked up) 2: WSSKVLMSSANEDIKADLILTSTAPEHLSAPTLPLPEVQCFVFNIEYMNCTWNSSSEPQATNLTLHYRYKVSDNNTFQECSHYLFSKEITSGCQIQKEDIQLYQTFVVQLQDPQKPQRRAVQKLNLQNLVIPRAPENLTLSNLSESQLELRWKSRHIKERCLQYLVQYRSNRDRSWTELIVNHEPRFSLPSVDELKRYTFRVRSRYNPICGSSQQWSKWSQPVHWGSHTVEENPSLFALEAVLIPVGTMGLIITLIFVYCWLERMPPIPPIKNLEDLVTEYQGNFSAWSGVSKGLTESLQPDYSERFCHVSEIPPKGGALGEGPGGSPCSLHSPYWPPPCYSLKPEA

T5: mouse IL-2 receptor α subunit (mIL-2Rα) (mouse, UniProt P01590 22-236, biotin on the C-terminal biotin acceptor peptide)
T5 construct: extracellular domain; Biotinylated and immobilised on streptavidin; also called murine IL-2Rα
T5 sequence: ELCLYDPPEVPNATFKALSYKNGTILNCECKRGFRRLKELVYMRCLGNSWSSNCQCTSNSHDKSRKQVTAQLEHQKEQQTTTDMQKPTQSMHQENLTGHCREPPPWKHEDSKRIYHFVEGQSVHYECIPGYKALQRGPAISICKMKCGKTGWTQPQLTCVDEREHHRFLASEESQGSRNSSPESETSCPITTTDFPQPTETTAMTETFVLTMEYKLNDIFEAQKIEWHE

T6: human IL-2 receptor α subunit (hIL-2Rα) (human, UniProt P01589 22-238, biotin on the C-terminal biotin acceptor peptide)
T6 construct: range 1-217; Biotinylated and immobilised on streptavidin; also called human IL-2Rα; CD25
T6 sequence: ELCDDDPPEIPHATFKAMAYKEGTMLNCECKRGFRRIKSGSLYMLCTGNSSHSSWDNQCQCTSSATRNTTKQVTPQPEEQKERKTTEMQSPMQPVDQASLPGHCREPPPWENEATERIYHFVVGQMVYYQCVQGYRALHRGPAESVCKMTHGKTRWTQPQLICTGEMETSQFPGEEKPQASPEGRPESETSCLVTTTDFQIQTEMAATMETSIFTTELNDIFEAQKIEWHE


Columns and labels:
[1] = biological target: T1, human IL-2 receptor β subunit (hIL-2Rβ); experiment: SPR, equilibrium titration; biotinylated IL-2Rβ on streptavidin chip
Procedure: (§1) Less than 100 response units (RU) of each ligand was immobilized to minimize mass transfer effects. […] Surface regeneration for all interactions was conducted using 15 s exposure to 1 M MgCl2 in 10 mM sodium acetate pH 5.5. SPR experiments were carried out in HBS-P+ buffer (GE Healthcare) supplemented with 0.2% bovine serum albumin (BSA) at 25° C. and all binding studies were performed at a flow rate of […] to prevent analyte rebinding. Data was visualized and processed using the Biacore T100 evaluation software version 2.0 (GE Healthcare). Equilibrium titration curve fitting and equilibrium binding dissociation (KD) value determination was implemented using GraphPad Prism assuming all binding interactions to be first order. Biolayer interferometry: binding data were collected in a Octet RED96 (ForteBio, Menlo Park, Calif.) and processed using the instrument's integrated software using a 1:1 binding model. […] Analyte proteins were diluted from concentrated stocks into binding buffer. After baseline measurement in binding buffer alone, the binding kinetics were monitored by dipping the biosensors in wells containing 100 nM of the designed protein (association) and then dipping the sensors back into baseline wells (dissociation).

[2] = biological target: T2, mouse IL-2 receptor β subunit (mIL-2Rβ); experiment: as above
Procedure: as §1

[3] = biological target: human IL-2Rβγc on human cells (YT-1 NK cells) (human) (UniProt P14784); experiment: cell-based or functional assay
[4] = biological target: mouse IL-2 receptor βγc heterodimer (mIL-2Rβγc), soluble (mouse) (UniProt P16297); experiment: SPR, equilibrium titration; IL-2Rγ on streptavidin chip, saturating IL-2Rβ in solution
[5] = biological target: human IL-2 receptor βγc heterodimer (hIL-2Rβγc), soluble (human) (UniProt P14784); experiment: as above
[6] = biological target: T3, mouse IL-2 receptor βγc heterodimer …; experiment: biolayer interferometry; biotin-mIL2Gamma on streptavidin biosensor, MSA-Neo2 titrated from 729 to 1 nM with saturating mIL2Beta
[7] = biological target: T4, mouse IL-2Rβγc on murine cells (CTLL-2 …); experiment: cell-based or functional assay
[8] = biological target: T3, mouse IL-2 receptor βγc heterodimer …; experiment: SPR, equilibrium titration; IL-2Rγ on streptavidin chip, saturating IL-2Rβ in solution
Procedure: as §1

[9] = biological target: T4, mouse IL-2Rβγc on murine cells (CTLL-2 …); experiment: cell-based or functional assay; remark: listed apart in the source
[10] = biological target: T5, mouse IL-2 receptor α subunit (mIL-2Rα); experiment: SPR, biotinylated receptor on streptavidin chip
Procedure: as §1

[11] = biological target: T6, human IL-2 receptor α subunit (hIL-2Rα); experiment: SPR, biotinylated receptor on streptavidin chip
Procedure: as §1

Kd [1] [nM] | Kd [2] [nM] | EC50 (CD25-) pSTAT5p, human NK (YT, CD25-) cells [3] [nM] | Kd [4] [nM] | Kd [5] [nM] | Kd [6] [nM] | EC50 of pSTAT5 signaling, murine CD4+ primary cells ex vivo, CD25+ [7] [pM] | EC50 of pSTAT5 signaling, murine CD4+ primary cells ex vivo, CD25- [7] [pM] | Kd [8] [nM] | EC50 (CD25+) pSTAT5, murine T (CTLL-2, CD25+) cells [9] [nM] | binding result [10] | binding result [11] | Molecule
2 | 214 | 0.07 | 312 | 301 |  |  |  |  |  |  |  | Super-2/Superkine (PDB: 3QAZ) (ligand)
 |  |  |  |  | 33.5 |  |  |  |  |  |  | Mouse Serum Albumin (MSA) fusion to Neoleukin-2/15 (other, also called MSA-Neo2) GSDGGSHHHHHHGSGSENLYFQGSGEAHKSEIAHRYNDLGEQHFKGLVLIAFSQYLQKCSYDEHAKLVQEVTDFAKTCVADESAANCDKSLHTLFGDKLCAIPNLRENYGELADCCTKQEPERNECFLQHKDDNPSLPPFERPEAEAMCTSFKENPTTFMGHYLHEVARRHPYFYAPELLYYAEQYNEILTQCCAEADKESCLTPKLDGVKEKALVSSVRQRMKCSSMQKFGERAFKAWAVARLSQTFPNADFAEITKLATDLTKVNKECCHGDLLECADDRAELAKYMCENQATISSKLQTCCDKPLLKKAHCLSEVEHDTMPADLPAIAADFVEDQEVCKNYAEAKDVFLGTFLYEYSRRHPDYSVSLLLRLAKKYEATLEKCCAEANPPACYGTVLAEFQPLVEEPKNLVKTNCDLYEKLGEYGFQNAILVRYTQKAPQVSTPTLVEAARNLGRVGTKCCTLPEDQRLPCVEDYLSAILNRVCLLHEKTPVSEHVTKCCSGSLVERRPCFSALTVDETYVPKEFKAETFTFHSDICTLPEKEKQIKKQTALAELVKHKPKATAEQLKTVMDDFAQFLDTCCKAADKDTCFSTEGPNLVTRCKDALAGGGSGGSGGGSGGSGSGPKKKIQLHAEHALYDALMILNIVKTNSPPAEEKLEDYAFNFELILEEIARLFESGDQKDEAEKAKRMKEWMKRIKTTASEDEQEEMANAIITILQSWIFS
 | 16.1 |  |  |  |  | ~24 | ~129 | 38.4 | 0.07 | no binding | no binding | Neoleukin-2/15 (designed binder, 100 residues; also called Neo-2/15; Neolukin-2/15) PKKKIQLHAEHALYDALMILNIVKTNSPPAEEKLEDYAFNFELILEEIARLFESGDQKDEAEKAKRMKEWMKRIKTTASEDEQEEMANAIITILQSWIFS
